Results on seven molecules are retold here after CN112159475A (NANJING KAEDI BIOTECH INC, dated 2021).

B1: KD075-C40 (antibody, V domains shown)
VH: EVRLQQSGPELVKPGASVKISCKASGYTFTDYNIHWMKQSHGKSLEWIGYIYPSFGGTAYNQKFKSKATLTVDNSSSTAYMEFRSLTSEDSAVYFCAVYGNYEGFAYWGQGTLVTVSA
VL: ENVLTQSPAIMSASLGEKVTMSCRASSSVNYMYWYQQKSDASPKLWIYYTSNLAPGVPARFSGSGSGNSYYLTISSMEGEDAATYYCQQFTSSPWTFGGGTKLEIK
B2: KD075-C46 (antibody, V domains shown)
VH: EVKLVESEGGLVQPGSSMKLSCTASGFTFSDYYMAWVRQVPEKGLEWVAKINYDGSSTYYLDSLKSRFIISRDNAKNILYLQMSSLKSEDTATYYCARSYDYDGYYFDYWGQGTTLTVSS
VL: DIVLTQSPASLAMSLGKRATISCRASESVSIIGTNLIHWYQQKPGQPPKLLIYHASNLETGVPARFSGSGSRTDFTLTIDPVEEDDVAIYYCLQSRKIPWTFGGGTKLEIK
B3: KD075-C52 (antibody, V domains shown)
VH: EVQLVESGGGLVKPGGSLKLSCAASGFTFSYYAMSWVRQTPEKRLEWVATVSDVDDYTYYPDNVKGRFNISRDNAKNNLYLQMRHLKSEDTAMYYCVRDGSYGWYFDVWGTGTTVTVSS
VL: DIVMTQSPSSLTVTAGEKVTMSCKSSQSLLNSGNQKNYLTWYQQKPGQTPKLLIYWASTRESGVPDRFTGSGSGTDFTLTISSVQAEDLAVYYCQNDYSYPLTFGTGTKLELK
B4: KD075-C9 (antibody, V domains shown)
VH: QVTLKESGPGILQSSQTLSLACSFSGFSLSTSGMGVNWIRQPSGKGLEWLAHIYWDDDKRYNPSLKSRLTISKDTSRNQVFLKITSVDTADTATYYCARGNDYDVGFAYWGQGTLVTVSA
VL: DIVMTQSHKFMSTSVGDRVSITCKASQDVSTAVVWYQQKPGQSPKLLIDSASYRYTGVPDRFTGSGSGTDFTFTISSVQAEDLAVYYCQQHYSTPRTFGGGTKLEIK
B5: KD075-C18 (antibody, V domains shown)
VH: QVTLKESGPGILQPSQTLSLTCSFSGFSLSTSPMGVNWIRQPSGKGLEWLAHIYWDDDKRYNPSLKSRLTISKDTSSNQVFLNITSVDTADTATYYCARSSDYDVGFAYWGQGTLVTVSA
VL: DIVMTQSHKFMSTSVGDRVSITCKASQDVSTAVAWYQQKLGQSPKLLISSASYRYTGVPDRFTGSGSGTDFTFTISSVQAEDLAVYYCQQHYSTPRTFGGGTKLEIK
B6: KD075-C30 (antibody, V domains shown)
VH: DVQLVESGGGLVQPGGSRKLSCAASGFTFSSFGMHWVRQAPEKGLEWVAYISSGSSSIYYADTVKGRFTISRDNPKNTLFLQMTSLRSEDTAMYYCARTFPMDYWGQGTSVTVSS
VL: QAVVTQESALTTSPGETVTLTCRSSTGAVTISNYANWVQEKPDHLFTGLIGGTYNRSPGVPARFSGSLIGDKAALTITGAQTEDEAIYFCALWYSNHWVFGGGTKLTVL
B7: KD075-C31 (antibody, V domains shown)
VH: DVQLVESGGGLVQPGTSRKLSCTASGFTFSSFGMHWVRQAPEKGLEWVAYISSGSSSIYYADTVKGRFTISRDNPKNTLFLQMTSLRSEDTAIYYCARTFPMDYWGQGTSVTVSS
VL: QAVVTQESALTTSPGETVTLTCRSSTGAVTISNYANWVQEKPDHLFTGLIGGTYNRSPGVPARFSGSLIGDKAALTITGAQTEDEAIYFCALWYSNHWVFGGGTKLTVL

By EC50 is commonly meant the midpoint of the concentration-response curve.

For the experiment, the target named is T1, 融合至人IgG1 Fc段的人Siglec-15胞外结构域的重组蛋白Siglec-15-Fc (human, UniProt Q6ZMC9 20-263).
T1 construct: extracellular domain; also called 人Siglec-15重组蛋白; Siglec-15-Fc重组蛋白; not shown: human IgG1 Fc segment
T1 sequence (looked up): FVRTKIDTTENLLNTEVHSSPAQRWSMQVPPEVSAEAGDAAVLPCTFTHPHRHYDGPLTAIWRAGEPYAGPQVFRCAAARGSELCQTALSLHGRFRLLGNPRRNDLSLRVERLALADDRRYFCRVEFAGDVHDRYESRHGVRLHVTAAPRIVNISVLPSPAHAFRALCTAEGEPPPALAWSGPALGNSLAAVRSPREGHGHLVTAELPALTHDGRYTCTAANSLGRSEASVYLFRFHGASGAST
Description: indirect ELISA, plate coated with 0.5 ug/ml Siglec-15-Fc, purified antibody titrated from 10 ug/ml. In general terms: In an ELISA, binding on a coated surface is turned into a signal by an enzyme label.
As for B1, the response was half-maximal at 2.41 ng/mL (EC50).
As for B2, the figure is 2.29 ng/mL; as for B3, 2.25 ng/mL.
B4: it took 1.97 ng/mL to reach a half-maximal effect (EC50).
The value for B5 was 2.3 ng/mL; that for B6 was 2.27 ng/mL; that for B7 was 2.4 ng/mL.
